Reference: US8802826B2, “Anti-clusterin antibodies and antigen binding fragments and their use to reduce tumor volume” (Alethia Biotherapeutics Inc., priority 2009, dated 2014)
Values belong to the molecule of their own block, whether it stands above or below them.

What was measured:
[1] = system: PC-3 prostate cancer cells; assay: PC-3 prostate tumor xenograft; assay type: in vivo, SCID mice; settings: single injection 10 mg/kg i.p. on day 5
Method: PC-3 prostate cancer cells (2×10^6) were implanted s.c. into SCID mice and allowed to grow until the tumor sizes were approximately 100 mm^3. Tumors were measured bi-weekly with a digital caliper and tumor volumes were calculated as L×W×H. Each group contained 8 animals that were randomized prior to the beginning off the treatments. The results were expressed as mm^3±SEM.
A second prostate cancer model study was conducted in a different tumor model by implanting PC-3 prostate cancer cells. PC-3 cells are also hormone-insensitive but are documented as being slightly more invasive than the DU145 cells. As was described above, the cells were implanted sub-cutaneously in SCID mice and treatments were initiated when the tumors reached a volume of approximately 100 mm^3 (designated day 1). The h16B5 injections were administered i.p. on day 1 at 5 mg/kg and continued twice per week thereafter whereas a single TxT injection at 10 mg/kg was administered i.p. on day 5.

[2] = biological target: T1, human clusterin (recombinant monomeric clusterin) (Homo sapiens, UniProt P10909); assay: BIAcore kinetic analysis of antibody binding to immobilized clusterin; settings: for KD of the interaction with immobilized human clusterin: stated in words
T1 construct: Recombinant monomeric clusterin was immobilized on a CM3 chip with normal amine coupling method
T1 sequence (P10909 23-449): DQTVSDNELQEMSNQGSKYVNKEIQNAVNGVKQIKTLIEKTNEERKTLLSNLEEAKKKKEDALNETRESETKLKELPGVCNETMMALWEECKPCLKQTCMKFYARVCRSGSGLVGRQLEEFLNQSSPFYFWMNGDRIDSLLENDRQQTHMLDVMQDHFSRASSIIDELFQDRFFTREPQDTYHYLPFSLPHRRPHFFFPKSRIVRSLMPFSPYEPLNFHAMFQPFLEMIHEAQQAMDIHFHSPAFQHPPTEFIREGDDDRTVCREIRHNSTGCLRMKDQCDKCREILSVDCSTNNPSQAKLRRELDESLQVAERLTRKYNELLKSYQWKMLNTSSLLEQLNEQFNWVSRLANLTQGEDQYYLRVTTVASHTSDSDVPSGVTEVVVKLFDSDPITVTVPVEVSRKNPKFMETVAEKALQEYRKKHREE
Method: The purpose of these investigations is to determine the kinetics parameters of anti-clusterin antibodies. In particular, to determine whether the humanization of the 16B5 and 21B12 anti-clusterin monoclonal antibody affects the kinetics parameters of its binding to human clusterin. To this end, a kinetic analysis method was developed using the BIAcore 3000. Human clusterin was immobilized on a sensor chip. Full length antibodies or Fab fragments were injected and allowed to interact with the immobilized clusterin. This example described the exemplary antibody 16B5 but the 21B12 exemplary antibody was prepared and tested in a similar manner.
HBST (10 mM Hepes pH 7.4, 135 mM NaCl, 3.4 mM EDTA, 0.005% Tween 20) was used as running buffer for all BIAcore experiments. Recombinant monomeric clusterin was immobilized on a CM3 chip with normal amine coupling method at a flow of 5 μl/min. Surface was activated with 35 μl of a mixture of 50 mM NHS/0.2M EDC. Clusterin in 10 mM Na-acetate pH 4.5 was injected until a desired amount was captured (below 60RU). Unreacted esters were deactivated with 35 μL1 of 1M ethanolamine hydrochloride-NaOH pH8.5. A control surface was prepared by injecting NHS/EDC and ethanolamine in the same manner.
Kinetics analysis was conducted at a flow of 50 μl/min. Full length antibodies (mouse or humanized) or Fab were diluted in HBST. Concentration range was from 1.953-31.25 nM for the full length antibodies and 15.625-250 nM for the Fab. Each concentration was injected over the clusterin and a control surface for 5 min followed with a 5 min dissociation wash. The clusterin surface was regenerated between each antibody injection with 50 μl of 20 mM HCl.

EMT6 cells = assay: wound healing (scratch) migration assay; assay type: cell-based, mouse; settings: 37 C for 15 h
Method: FIG. 4. h16B5 blocks the migration of cancer cell lines.
To test the activity of anti-clusterin antibodies against cancer cell migration, a standard wound healing, or scratch assay, was used. In this assay, EMT6 cells, a mouse mammary carcinoma cell line, was plated at high density and subjected to wounding by the creation of a scratch in the cell layer. At time 0, a wide denuded area is evident that quickly fills up after incubation of the cells at 37 C for 15 h (see upper left-hand panels in FIG. 4).

Molecule: CC(=O)O[C@@]12CO[C@@H]1C[C@H](O)[C@@]1(C)C(=O)[C@H](O)C3=C(C)[C@@H](OC(=O)[C@H](O)[C@@H](NC(=O)OC(C)(C)C)c4ccccc4)C[C@@](O)([C@@H](OC(=O)c4ccccc4)[C@H]21)C3(C)C [TxT, taxotere, reference compound]
time after injection at which tumors appeared to recover from treatment [1]: approximately 18 days

KD of the interaction with immobilized human clusterin [2]: low nM range
B1: mouse 16B5: parent mouse anti-clusterin monoclonal antibody, VL SEQ ID NO.:25, VH SEQ ID NO.:29 (antibody, V domains shown)
VH: EVQLQQSGAELVKPGASVRLSCTTSGFNIKDIYMHWVKQRPEQGLEWIGRIDPAYGNTKYDPKFQGKATITADTSSNTAYLQLSSLTSEDTAVYYCARRYDTAMDYWGQGTSVTVSS
VL: DIVMSQSPSSLAVSAGEKVTMSCKSSQSLLNSRTRKNYLAWYQQKPGQSPKLLIYWASTRESGVPDRFTGSGSGTDFTLTISSVQAEDLAVYYCKQSYNLWTFGGGTKLEFK
modifications: murine 16B5 VH; murine 16B5 VL
migration of cells into the denuded area (EMT6 cells): reduced number of cells in the denuded area

KD of the interaction with immobilized human clusterin [2]: low nM range
B2: mouse 21B12: parent mouse anti-clusterin monoclonal antibody, VL SEQ ID NO.:33, VH SEQ ID NO.:37 (antibody, V domains shown)
VH: QIQLVQSGPELKKPGETVKISCKASGYTFTNYGMHWVKQAPGKGLKWMGWINTYTGEPTYADDFKGRFAFSLETSASTAYLQINNLKNEDTATYFCARDGFLYFFDYWGQGTTLTVSS
VL: DIVMSQSPSSLAVSVGEKVTMSCKSSQSLLYSSNQKNYLAWYQQRPGQSPKLLIYWASTRESGVPDRFTGSGSGTDFTLTISSVKAEDLAVYYCQQYYIYPRTFGGGTKLEIK
modifications: murine 21B12 VH; murine 21B12 VL

kinetics parameters compared with the parent mouse antibody ([2]; full length vs full length, Fab vs Fab): slightly better
B3: HH16B5 Fab: Fab fragment of humanized 16B5 prepared by papain digestion (antibody, V domains shown)
VH: QVQLVQSGAEVKKPGATVKISCKVSGFNIKDIYMHWVQQAPGKGLEWMGRIDPAYGNTKYDPKFQGRVTITADTSTDTAYMELSSLRSEDTAVYYCARRYDTAMDYWGQGTLVTVSS
VL: DIVMTQSPDSLAVSLGERATINCKSSQSLLNSRTRKNYLAWYQQKPGQPPKLLIYWASTRESGVPDRFSGSGSGTDFTLTISSLQAEDVAVYYCKQSYNLWTFGQGTKLEIK
